Experimental data reported in PMC6848142.

Tested on: KRAS wild type
Experiment: MST
Conditions: MST: labeled protein 20 nM final in PBS, RNA diluted in deionized water and mixed 1:1; RNA folded in TE (70 C 5 min, then ice 15 min); pH and assay temperature …

Substance SNORD50A has a Kd of 140 nM.

Substance SNORD50B has a Kd of 122 nM.
